# Target: the molecule itself
# Assay: deoxycholate-induced oligomerization, PAGE and western blot
protein,measurement,value
Staphylococcus aureus alpha-hemolysin (Hla) (natural protein) ADSDINIKTGTTDIGSNTTVKTGDLVTYDKENGMHKKVFYSFIDDKNHNKKLLVIRTKGTIAGQYRVYSEEGANKSGLAWPSAFKVQLQLPDNEVAQISDYYPRNSIDTKEYMSTLTYGFNGNVTGDDTGKIGGLIGANVSIGHTLKYVQPDFKTILESPTDKKVGWKVIFNNMVNQNWGPYDRDSWNPVYGNQLFMKTRNGSMKAADNFLDPNKASSLLSSGFSPDFATVITMDRKASKQQTNIDVIYERVRDDYQLHWTSTNWKGTNTKDKWTDRSSERYKIDWEKEEMTN,stoichiometry N,7
